Data from PMC7864924, “Structures of active-state orexin receptor 2 rationalize peptide and small-molecule agonist recognition and receptor activation” (Nature Communications, 2021).

T1: Engineered human orexin receptor 2 (OX2R) truncated after R389, ICL3 residues V261-A291 deleted, with an … (human, UniProt O43614 1-389, residues V261–A291 deleted, biotin on the Avi-tag (BirA biotin-protein ligase))
T1 construct: Orexin receptor type 2 (OX2R), human, truncated after residue R389, part of ICL3 (residues V261-A291) deleted; M1 is said to be present in the construct; Detergent-solubilised receptor (DDM/CHS); The PDB entries hold the construct without the Avi-tag; also called engineered OX2R; orexin receptor type 2; source: biotinylated with BirA; not shown: Avi-tag, N-terminal, kept
T1 sequence (looked up): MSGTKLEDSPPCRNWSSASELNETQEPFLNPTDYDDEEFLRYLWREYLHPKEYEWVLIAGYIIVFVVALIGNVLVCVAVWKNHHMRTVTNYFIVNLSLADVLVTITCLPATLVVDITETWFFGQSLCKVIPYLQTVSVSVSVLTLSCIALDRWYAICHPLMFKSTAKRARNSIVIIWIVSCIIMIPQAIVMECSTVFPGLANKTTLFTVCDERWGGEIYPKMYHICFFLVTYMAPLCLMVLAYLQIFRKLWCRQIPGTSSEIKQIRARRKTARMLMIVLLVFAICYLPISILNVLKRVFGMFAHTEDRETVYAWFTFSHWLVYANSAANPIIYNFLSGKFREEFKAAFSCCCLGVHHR

T2: wildtype OX2R (Homo sapiens, UniProt O43614)
T2 sequence (O43614 1-444): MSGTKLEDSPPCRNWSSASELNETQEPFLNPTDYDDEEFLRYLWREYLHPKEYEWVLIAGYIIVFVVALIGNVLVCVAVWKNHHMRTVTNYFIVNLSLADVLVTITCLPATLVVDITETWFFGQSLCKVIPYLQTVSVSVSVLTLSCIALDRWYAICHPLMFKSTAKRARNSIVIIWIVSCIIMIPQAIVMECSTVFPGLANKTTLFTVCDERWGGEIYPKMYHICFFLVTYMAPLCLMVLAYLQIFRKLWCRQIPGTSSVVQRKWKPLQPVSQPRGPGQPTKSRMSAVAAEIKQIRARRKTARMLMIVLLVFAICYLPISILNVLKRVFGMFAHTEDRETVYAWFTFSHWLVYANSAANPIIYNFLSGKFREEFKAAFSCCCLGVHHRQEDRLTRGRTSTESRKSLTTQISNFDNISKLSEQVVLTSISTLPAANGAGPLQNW

B1: synthetic nanobody Sb51 (VHH)
VHH: QVQLVESGGGLVQAGGSLRLSCAASGFPVGRVMYWYRQAPGKEREWVAAISSHGDMTAYADSVKGRFTISRDNAKNTVYLQMNSLKPEDTAVYYCEVYVGYFYHGQGTQVTVS
notes: in the coordinates deposited here (complex with compound 1); Supplementary Data 1 lists the hits from which Sb51 was chosen; source: E. coli C41(DE3) periplasm, MBP fusion, purified (NiNTA, TEV cleavage, NiNTA, cation exchange); not shown: His10, N-terminal, cleaved
B2: Synthetic nanobody clone 13 (VHH)
VHH: QVQLVESGGGLVQAGGSLRLSCAASGFPVNAREMYWYRQAPGKEREWVAAIVSKGSHTEYADSVKGRFTISRDNAKNTVYLQMNSLKPEDTAVYYCNVKDFGWWAVYYDYWGQGTQVTVS
notes: synthetic nanobody selected from the libraries of Zimmermann and coworkers by ribosome display and phage display; Host, tags and purification are told only for Sb51 (clone 51); also called Clone No. 13
B3: Synthetic nanobody clone 15 (VHH)
VHH: QVQLVESGGGLVQAGGSLRLSCAASGFPVKQREMAWYRQAPGKEREWVAAIWSKGAHTVYADSVKGRFTISRDNAKNTVYLQMNSLKPEDTAVYYCNVKDFGWWNRQYDYWGQGTQVTVS
notes: synthetic nanobody selected from the libraries of Zimmermann and coworkers by ribosome display and phage display; Host, tags and purification are told only for Sb51 (clone 51); also called Clone No. 15
B4: Synthetic nanobody clone 7 (VHH)
VHH: QVQLVESGGGLVQAGGSLRLSCAASGFPVLRQEMFWYRQAPGKEREWVAAIWSKGSTTEYADSVKGRFTISRDNAKNTVYLQMNSLKPEDTAVYYCNVKDYGWWNNWYDYWGQGTQVTVS
notes: synthetic nanobody selected from the libraries of Zimmermann and coworkers by ribosome display and phage display; Host, tags and purification are told only for Sb51 (clone 51: E. coli C41(DE3), MBP fusion cleaved by TEV); also called Clone No. 7
B5: Synthetic nanobody clone 45 (VHH)
VHH: QVQLVESGGGLVQAGGSLRLSCAASGFPVYTYTMYWYRQAPGKEREWVAAITSEGISTAYADSVKGRFTISRDNAKNTVYLQMNSLKPEDTAVYYCEVYVGYFYHGQGTQVTVS
notes: synthetic nanobody selected from the libraries of Zimmermann and coworkers by ribosome display and phage display; Host, tags and purification are told only for Sb51 (clone 51); also called Clone No. 45
B6: Synthetic nanobody clone 46 (VHH)
VHH: QVQLVESGGGLVQAGGSLRLSCAASGFPVDAYVMYWYRQAPGKEREWVAAIASQGHPTAYADSVKGRFTISRDNAKNTVYLQMNSLKPEDTAVYYCEVYVGYFYHGQGTRVTVS
notes: synthetic nanobody selected from the libraries of Zimmermann and coworkers by ribosome display and phage display; Host, tags and purification are told only for Sb51 (clone 51); also called Clone No. 46
B7: Synthetic nanobody clone 44 (VHH)
VHH: QVQLVESGGGLVQAGGSLRLSCAASGFPVDTYTMYWYRQAPGKEREWVAAINSNGHHTAYADSVKGRFTISRDNAKNTVYLQMNSLKPEDTAVYYCEVYVGWWYYGQGTQVTVS
notes: synthetic nanobody selected from the libraries of Zimmermann and coworkers by ribosome display and phage display; Host, tags and purification are told only for Sb51 (clone 51); also called Clone No. 44
B8: Synthetic nanobody clone 55 (VHH)
VHH: QVQLVESGGGLVQAGGSLRLSCAASGFPVQSHTMYWYRQAPGKEREWVAAINSTGQGTAYADSVKGRFTISRDNAKNTVYLQMNSLKPEDTAVYYCEVYVGYFYHGQGTQVTVS
notes: synthetic nanobody selected from the libraries of Zimmermann and coworkers by ribosome display and phage display; Host, tags and purification are told only for Sb51 (clone 51); also called Clone No. 55
B9: Synthetic nanobody clone 56 (VHH)
VHH: QVQLVESGGGLVQAGGSLRLSCAASGFPVVSYNMKWYRQAPGKEREWVAAIYSFGSLGSWTHYADSVKGRFTISRDNAKNTVYLQMNSLKPEDTAVYYCHVYVGATYYGQGTQVTVS
notes: synthetic nanobody selected from the libraries of Zimmermann and coworkers by ribosome display and phage display; Host, tags and purification are told only for Sb51 (clone 51); also called Clone No. 56
B10: 52 (VHH)
VHH: QVQLVESGGGLVQAGGSLRLSCAASGFPVKWKSMAWYRQAPGKEREWVAAISSYGWHTEYADSVKGRFTISRDNAKNTVYLQMNSLKPEDTAVYYCTVNVGKGYEGQGTQVTVS
B11: 41 (VHH)
VHH: QVQLVESGGGLVQAGGSLRLSCAASGFPVNSYVMYWYRQAPGKEREWVAAIGSTGEYTAYADSVKGRFTISRDNAKNTVYLQMNSLKPEDTAVYYCEVFVGYFYYGQGTQVTVS
B12: 47 (VHH)
VHH: QVQLVESGGGLVQAGGSLRLSCAASGFPVDSKTMYWYRQAPGKEREWVAAIASAGHLTAYADSVKGRFTISRDNAKNTVYLQMNSLKPEDTAVYYCEVHVGWFYHGQGTQVTVS
B13: 42 (VHH)
VHH: QVQLVESGGGLVQAGGSLRLSCAASGFPVNTRSMYWYRQAPGKEREWVAAIASTGWSTAYADSVKGRFTISRDNAKNTVYLQMNSLKPEDTAVYYCEVEVGYWYYGQGTQVTVS
B14: 53 (VHH)
VHH: QVQLVESGGGLVQAGGSLRLSCAASGFPVNTRSMYWYRQAPGKEREWVAAIASTGWSTAYADSVKGRFTISRDNAKNTVYLQMNSLKPEDTAVYYCEVYVGYFYHGQGTQVTVS
B15: 54 (VHH)
VHH: QVQLVESGGGLVQAGGSLRLSCAASGFPVQHYVMYWYRQAPGKEREWVAAIDSSGAHTVYADSVKGRFTISRDNAKNTVYLQMNSLKPEDTAVYYCEVYVGWFYHGQGTQVTVS
B16: 43 (VHH)
VHH: QVQLVESGGGLVQAGGSLRLSCAASGFPVSYIGMEWYRQAPGKEREWVAAITGFGHWTAYADSVKGRFTISRDNAKNTVYLQMNSLKPEDTAVYYCEVQVGAKYYGQGTQVTVS
B17: 40 (VHH)
VHH: QLQLVESGGGLVQAGGSLRLSCAASGFPVRSYTMYWYSQAPGKEREWVAAINSQGNTTAYADSVKGRFTISRDNAKNTVYLQMNSLKPEDTAVYYCEVYVGYWYHGQGTQVTVS
B18: 57 (VHH)
VHH: QVQLVESGGGLVQAGGSLRLSCAASGFPVSQKTMYWYRQAPGKEREWVAAIASEGQKTAYADSVKGRFTISRDNAKNTVYLQMNSLKPEDTAVYYCEVYVGYFYHGQGTQVTVS
B19: 50 (VHH)
VHH: QVQLVESGGGLVQAGGSLRLSCAASGFPVWHDTMYWYRQAPGKEREWVAAIGSTGNLTAYADSVKGRFTISRDNAKNTVYLQMNSLKPEDTAVYYCEVYVGYFYHGQGTQVTVS
B20: 49 (VHH)
VHH: QVQLVESGGGLVQAGGSLRLSCAASGFPVYNNTMYWYRQAPGKEREWVAAISSGGSNTAYADSVKGRFTISRDNAKNTVYLQMNSLKPEDTAVYYCEVYVGYFYHGQGTQVTVS
B21: 48 (VHH)
VHH: QVQLVESGGGLVQAGGSLRLSCAASGFPVAMNTMYWYRQAPGKEREWVAAITSSGEHTAYADSVKGRFTISRDNAKNTVYLQMNSLKPEDTAVYYCEVYVGYFYHGQGTQVTVS

molecular target: T3, engineered OX2R carrying an additional amino-terminal Avi-tag, biotinylated (Homo sapiens, UniProt O43614, residues V261–A291 deleted, biotin on the Avi-tag (BirA biotin-protein ligase)); experiment: grating-coupled interferometry; WAVE system (Creoptix); agonist-bound OX2R immobilised via the biotinylated Avi-tag on a neutravidin-coated WAVEchip 4PCP; settings: both partners purified
T3 construct: orexin receptor type 2, human; as m1: truncated after residue R389, part of ICL3 (V261–A291) deleted; source: Expi293 cells, transiently transfected, purified in the presence of 50 µM small-molecule agonist, biotinylated with BirA; not shown: Avi-tag, N-terminal, kept

Molecule | Kd
B1 | ~0.6 nM

molecular target: T1, Engineered human orexin receptor 2 …; experiment: grating-coupled interferometry; WAVE system (Creoptix); agonist-bound OX2R immobilised via the biotinylated Avi-tag on a neutravidin-coated WAVEchip 4PCP; nanobody as analyte; settings: both partners purified

Molecule | Kd
B2 | 12 nM
B3 | 300 nM
B4 | 11 nM
B5 | 11 nM
B6 | 4.2 nM
B7 | 7.7 nM
B8 | 7.3 nM
B9 | 0.5 nM

molecular target: T3, engineered OX2R carrying an additional …; experiment: not given; settings: not given

Molecule | binding result
B10 | binds
B11 | binds
B12 | binds
B13 | binds
B14 | binds
B15 | binds
B16 | binds
B17 | binds
B18 | binds
B19 | binds
B20 | binds
B21 | binds

molecular target: T2, wildtype OX2R; experiment: Saturation binding of 125I-OxA to wildtype OX2R; settings: CHO cell membranes, wild-type OX2R, room temperature, 6 h, pH 7.4; mean ± s.e.m., n = 3

Molecule | Dissociation constant, pKD
125I-OxA: radioligand, 125I-labelled OxA (PerkinElmer) (QPLPDCCRQKTCSCRLYELLHGAGNHAAGILTL) | 9.12 ± 0.05
